From patent US20240158497A1 (published 2024)

T1: Macaca Fascicularis GP130 extracellular domain expressed with a C-terminal myc-myc-hexahistidine tag (Macaca fascicularis, UniProt P40189 23-619 (human entry))
T1 construct: also called mfGP130-MMH; mfGP130-mmH
T1 chain: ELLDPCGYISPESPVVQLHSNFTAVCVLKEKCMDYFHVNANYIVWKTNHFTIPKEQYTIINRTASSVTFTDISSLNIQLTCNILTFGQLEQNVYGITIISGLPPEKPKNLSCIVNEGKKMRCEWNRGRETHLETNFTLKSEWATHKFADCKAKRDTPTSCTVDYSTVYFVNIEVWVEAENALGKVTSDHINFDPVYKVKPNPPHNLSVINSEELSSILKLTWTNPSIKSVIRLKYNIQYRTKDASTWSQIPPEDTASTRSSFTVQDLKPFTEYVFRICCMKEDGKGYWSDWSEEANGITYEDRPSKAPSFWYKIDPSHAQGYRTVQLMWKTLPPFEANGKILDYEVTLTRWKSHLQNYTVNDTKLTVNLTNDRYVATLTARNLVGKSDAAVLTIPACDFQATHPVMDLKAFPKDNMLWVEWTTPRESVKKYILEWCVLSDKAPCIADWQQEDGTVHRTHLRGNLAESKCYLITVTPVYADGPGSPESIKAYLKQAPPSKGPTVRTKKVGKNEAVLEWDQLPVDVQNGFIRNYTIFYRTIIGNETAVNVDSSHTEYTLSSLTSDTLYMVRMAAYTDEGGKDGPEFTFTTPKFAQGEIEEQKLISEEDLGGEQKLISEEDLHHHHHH

T2: Macaca fascicularis GP130 extracellular domain expressed with a C-terminal myc-myc-hexahistidine tag (Macaca fascicularis, UniProt P40189 23-619 (human entry))
T2 construct: Monomeric reagent; also called mfGP130-mmH; mfGP130-MMH
T2 chain: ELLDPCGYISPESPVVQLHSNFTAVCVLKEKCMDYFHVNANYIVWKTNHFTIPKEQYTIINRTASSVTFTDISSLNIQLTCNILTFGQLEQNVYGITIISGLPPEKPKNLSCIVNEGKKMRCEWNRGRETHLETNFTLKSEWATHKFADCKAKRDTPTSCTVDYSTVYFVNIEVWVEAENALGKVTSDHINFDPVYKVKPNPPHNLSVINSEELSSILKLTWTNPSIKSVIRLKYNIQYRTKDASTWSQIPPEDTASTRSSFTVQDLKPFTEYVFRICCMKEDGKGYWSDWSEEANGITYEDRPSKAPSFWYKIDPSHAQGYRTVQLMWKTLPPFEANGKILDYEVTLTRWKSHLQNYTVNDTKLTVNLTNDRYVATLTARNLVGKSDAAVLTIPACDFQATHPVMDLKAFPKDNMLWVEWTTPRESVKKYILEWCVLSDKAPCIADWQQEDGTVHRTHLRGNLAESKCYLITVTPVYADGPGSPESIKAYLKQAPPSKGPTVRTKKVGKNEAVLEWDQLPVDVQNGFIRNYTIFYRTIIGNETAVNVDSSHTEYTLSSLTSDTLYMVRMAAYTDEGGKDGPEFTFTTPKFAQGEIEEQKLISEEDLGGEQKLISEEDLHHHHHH


What was measured:
[1] = molecular target: T3, human GP130 extracellular domain expressed with a C-terminal myc-myc-hexahistidine tag (human, UniProt P40189 23-619); assay: SPR, bsAb captured by anti-hFc, 25C
T3 construct: also called hGP130-MMH; hGP130-mmH
Experimental: (§1) Equilibrium dissociation constants (KD values) for LEPR and GP130 binding to purified anti-LEPR/GP130 bispecific antibodies were determined using a real-time surface plasmon resonance biosensor using a Biacore 4000 instrument. All binding studies were performed in 10 mM HEPES, 150 mM NaCl, 3 mM EDTA, and 0.05% v/v Surfactant Tween-20, pH 7.4 (HBS-ET) running buffer at 25° C. and 37° C. The Biacore sensor surface was first derivatized by amine coupling with a monoclonal mouse anti-human Fc antibody (GE, #BR-1008-39) to capture anti-LEPR/GP130 bispecific antibodies. […] Different concentrations of LEPR or GP130 reagents were first prepared in HBS-ET running buffer (100 nM-3.7 nM; 3-fold serial dilution) and were injected over anti-human Fc captured anti-LEPR/GP130 bispecific antibody surface for 4 minutes at a flow rate of 30 μL/minute, while the dissociation of bispecific antibody bound LEPR or GP130 reagent was monitored for 10 minutes in HBS-ET running buffer. Kinetic association (kₐ) and dissociation (kd) rate constants were determined by fitting the real-time binding sensorgrams to a 1:1 binding model with mass transport limitation using Scrubber 2.0c curve-fitting software. Binding dissociation equilibrium constants (KD) and dissociative half-lives (t ½) were calculated from the kinetic rate constants as: […]

[2] = molecular target: T1, Macaca Fascicularis GP130 extracellular …; assay: SPR, bsAb captured by anti-hFc, 25C
Experimental: as §1

[3] = molecular target: T3, human GP130 extracellular domain …; assay: SPR, bsAb captured by anti-hFc, 37C
Experimental: as §1

[4] = molecular target: T1, Macaca Fascicularis GP130 extracellular …; assay: SPR, bsAb captured by anti-hFc, 37C
Experimental: as §1

[5] = molecular target: T4, human GP130 extracellular domain expressed with a C-terminal myc-myc-hexahistidine tag (human, UniProt P40189 23-619); assay: SPR (Biacore 4000), mAb captured on anti-human Fc, 37 C
T4 construct: Monomeric reagent; also called hGP130-mmH; hGP130-MMH
Experimental: (§2) Equilibrium dissociation constant (KD) for different GP130 reagents binding to purified anti-GP130 monoclonal antibodies were determined using a real-time surface plasmon resonance based Biacore 4000 biosensor. All binding studies were performed in 10 mM HEPES, 150 mM NaCl, 3 mM EDTA, and 0.05% v/v Surfactant Tween-20, pH 7.4 (HBS-ET) running buffer at 25° C. and 37° C. The Biacore sensor surface was first derivatized by amine coupling with a monoclonal mouse anti-human Fc antibody (GE, #BR-1008-39) to capture anti-GP130 monoclonal antibodies. […] Reagents tagged with “mmH” are monomeric, whereas reagents tagged with “mFc” are dimeric. Thus, for example, “hGP130-mmH” is also referred to as “monomeric human GP130,” and “hGP130-mFc” is also referred to as “dimeric human GP130.”
(§3) The association rate (k a) and dissociation rate (kd) were determined by fitting the real-time binding sensorgrams to a 1:1 binding model with mass transport limitation using Scrubber 2.0c curve-fitting software. Binding dissociation equilibrium constant (KD) and dissociative half-life (t ½) were calculated from the kinetic rates as: […]

[6] = molecular target: T2, Macaca fascicularis GP130 extracellular …; assay: as above
Experimental: as §2, §3

[7] = molecular target: T2, Macaca fascicularis GP130 extracellular …; assay: SPR (Biacore 4000), mAb captured on anti-human Fc, 25 C
Experimental: as §2, §3

Binder | 100 nM hGP130-MMH Bound (RU) [1] [RU] | Kd [1] [nM] | koff [1] [s⁻¹] | kon [1] [M⁻¹ s⁻¹] | t½ [1] [s] | 100 nM mfGP130-MMH Bound (RU) [2] [RU] | Kd [2] [nM] | koff [2] [s⁻¹] | kon [2] [M⁻¹ s⁻¹] | t½ [2] [s] | 100 nM hGP130-MMH Bound (RU) [3] [RU] | Kd [3] [nM] | koff [3] [s⁻¹] | kon [3] [M⁻¹ s⁻¹] | t½ [3] [s] | 100 nM mfGP130-MMH Bound (RU) [4] [RU] | Kd [4] [nM] | koff [4] [s⁻¹] | kon [4] [M⁻¹ s⁻¹] | t½ [4] [s] | further results
bsAb19156D (bispecific antibody, V domains shown, LEPR x GP130 bispecific with common light chain) VH 1: QVQLVESGGGVVQPGRSLRLSCTASGFTFSSYAMYWVRQAPGKGLEWVSVIYYDGSYKYYADSVKGRFTISRDNSKNTLYLQMDSLRAEDTAVYYCASYNWNYWYFDFWGRGTLVTVSS VH 2: QVQLVESGGGLVKPGGSLRLSCAASGFTFSDYYMTWIRQTPGKGLDWVSYISSSGTNKYNADSVKGRFTISRDNAKNSLYLQMNSLRAEDTAVYYCVRDPPWGMDVWGQGTTVTVSS VL: not shown | 27 | 24.7 | 0.00221 | 89500 | 300 | 30 | 22.1 | 0.00162 | 73300 | 420 | 24 | 95 | 0.00797 | 83900 | 84 | 26 | 87.6 | 0.00767 | 87500 | 90 | 
MAb16618 (antibody, V domains shown) VH: QVQLQESGPGLVKPSETLSLTCTVSGGSISNYYWTWIRQPPGKGLEWIGHISNSGTTNYNPSLKSRVTISVDTSKNQFSLKLTSVTAADTAVYYCARLPLGIAAVDTDYYYYFGMDVWGQGTTVTVSS VL: not shown |  |  |  |  |  |  |  |  |  |  |  |  |  |  |  |  |  |  |  |  | 100 nM Ag Bound [5]: 36 RU; Kd [5]: 103 nM; koff [5]: 0.112 s⁻¹; kon [5]: 1.08e+06 M⁻¹ s⁻¹; t½ [5]: 6 s; 100 nM Ag Bound [6]: 26 RU; Kd [6]: 90.3 nM; koff [6]: 0.12 s⁻¹; kon [6]: 1.33e+06 M⁻¹ s⁻¹; t½ [6]: 6 s; 100 nM Ag Bound [7]: 40 RU; Kd [7]: 166 nM; koff [7]: 0.0621 s⁻¹; kon [7]: 374000 M⁻¹ s⁻¹; t½ [7]: 12 s
bsAb19757D (bispecific antibody, V domains shown, LEPR x GP130 bispecific with common light chain) VH 1: EVQLVESGGGLVQPGGSLRLSCVASGFTFNKYDMHWVRQTTGKGLEWVSGIDTDGDTYYPGSVKGRFTISRENAENSLYLQMNGLRVGDTAVYYCARWPWSGFYGAFDIWGQGTMVTVSS VH 2: EVQLVESGGGVVRPGGSLRLSCTASGFTFDDYGMSWVRQAPGKGLEWVSGINWNGGRTEYADAVKGRFIISRDNAKNSLYLQMNSLRAEDTALYFCARTELRWDYWGQGTLVTVSS VL: not shown | 16 | 196 | 0.0218 | 112000 | 30 | 15 | 188 | 0.0204 | 108000 | 36 | 16 | 358 | 0.0635 | 178000 | 12 | 14 | 450 | 0.0598 | 133000 | 12 | 
MAb16622 (antibody, V domains shown) VH: EVQLVESGGGVVRPGGSLRLSCTASGFTFDDYGMSWVRQAPGKGLEWVSGINWNGGRTEYADAVKGRFIISRDNAKNSLYLQMNSLRAEDTALYFCARTELRWDYWGQGTLVTVSS VL: not shown |  |  |  |  |  |  |  |  |  |  |  |  |  |  |  |  |  |  |  |  | 100 nM Ag Bound [5]: 30 RU; Kd [5]: 225 nM; koff [5]: 0.0574 s⁻¹; kon [5]: 255000 M⁻¹ s⁻¹; t½ [5]: 12 s; 100 nM Ag Bound [6]: 28 RU; Kd [6]: 198 nM; koff [6]: 0.0537 s⁻¹; kon [6]: 272000 M⁻¹ s⁻¹; t½ [6]: 12 s; 100 nM Ag Bound [7]: 34 RU; Kd [7]: 151 nM; koff [7]: 0.02 s⁻¹; kon [7]: 132000 M⁻¹ s⁻¹; t½ [7]: 36 s
bsAb19758D (bispecific antibody, V domains shown, LEPR x GP130 bispecific with common light chain) VH 1: EVQLVESGGGLVQPGGSLRLSCVASGFTFNKYDMHWVRQTTGKGLEWVSGIDTDGDTYYPGSVKGRFTISRENAENSLYLQMNGLRVGDTAVYYCARWPWSGFYGAFDIWGQGTMVTVSS VH 2: EVQLVESGGGLVQSGGSLRLSCAASGFTFSRYEMNWVRQAPGKGLEWVAYISNTGTTRDYSDSVKGRFTISRDNAKNSLYLQMSSLRVEDTAVYYCVREKFSGTSDWFDPWGQGTLVTVSS VL: not shown | 51 | 14.6 | 0.00457 | 313000 | 150 | 46 | 16.5 | 0.00507 | 307000 | 138 | 50 | 16.7 | 0.00747 | 448000 | 90 | 45 | 18.2 | 0.0073 | 402000 | 96 | 
MAb16614 (antibody, V domains shown) VH: QVQLVESGGGVVQPGGSLRLSCAASGFTFSTYDIHWVRQAPGKGLEWVAVISFDGSNRNYGDSVKGRFTISRDNSDNTLFLEMNNLRFEDTAVYYCAKEGYGVDFQHWGQGTLVTVSS VL: not shown |  |  |  |  |  |  |  |  |  |  |  |  |  |  |  |  |  |  |  |  | 100 nM Ag Bound [5]: 10 RU; Kd [5]: 121 nM; koff [5]: 0.03 s⁻¹; kon [5]: 247000 M⁻¹ s⁻¹; t½ [5]: 24 s; 100 nM Ag Bound [6]: 8 RU; Kd [6]: 72.2 nM; koff [6]: 0.0267 s⁻¹; kon [6]: 370000 M⁻¹ s⁻¹; t½ [6]: 24 s; 100 nM Ag Bound [7]: 16 RU; Kd [7]: 139 nM; koff [7]: 0.0104 s⁻¹; kon [7]: 74400 M⁻¹ s⁻¹; t½ [7]: 66 s
